{
  "source": "patent US20120207759A1",
  "about": "(WASHINGTON UNIVERSITY, published 2012)",
  "binders": {"B1": {"name": "human BTLA-Fc fusion protein (Fc fusion)", "chain": "KESCDVQLYIKRQSEHSILAGDPFELECPVKYCANRPHVTWCKLNGTTCVKLEDRQTSWKEEKNISFFILHFEPMLPNDNGSYRCSANFQSNLIESHSTTLYVTDVKGASERPSKDEVA", "notes": "Used as 1 ml of supernatant for staining; also called hBTLA-Fc; not shown: Fc-αTP part of the CD47-Fc-αTP-ires-GFP-RV vector (detected with anti-human IgG)"}, "B2": {"name": "mouse BTLA-Fc fusion protein (Fc fusion)", "chain": "EKATKRNDEECPVQLTITRNSKQSARTGELFKIQCPVKYCVHRPNVTWCKHNGTICVPLEVSPQLYTSWEENQSVPVFVLHFKPIHLSDNGSYSCSTNFNSQVINSHSVTIHVTERTQNSSEHPLIISDIPDATNAS", "notes": "also called mBTLA-Fc; not shown: Fc-αTP part of the CD47-Fc-αTP-ires-GFP-RV vector (detected with anti-human IgG)"}, "B3": {"name": "mouse BTLA tetramer (allele not stated at these places) (other, UniProt Q7TSA3 30-166, looked up)", "chain": "EKATKRNDEECPVQLTITRNSKQSARTGELFKIQCPVKYCVHRPNVTWCKHNGTICVPLEVSPQLYTSWEENQSVPVFVLHFKPIHLSDNGSYSCSTNFNSQVINSHSVTIHVRERTQNSSEHPLITVSDIPDATNA", "modifications": "biotinylated; bound to streptavidin-phycoerythrin", "notes": "domain: BTLA Ig domain; also called BTLA tetramers; tetramers of mouse BTLA"}, "B4": {"name": "mB7x-Fc fusion protein (Fc fusion)", "chain": "LIIGFGISGKHFITVTTFTSAGNIGEDGTLSCTFEPDIKLNGIVIQWLKEGIKGLVHEFKEGKDDLSQQHEMFRGRTAVFADQVVVGNASLRLKNVQLTDAGTYTCYIRTSKGKGNANLEYKTGAFSMPEINVDYNASSESLRCEAPRWFPQPTVAWASQVDQGANFSEVSNTSFELNSENVTMKVVSVLYNVTINNTYSCMIENDIAKATGDIKVTDSEVKRRSQLQLLNSG", "notes": "not shown: Fc-αTP part of the CD47-Fc-αTP-ires-GFP-RV vector (detected with anti-human IgG)"}, "B5": {"name": "C57BL/6 BTLA tetramer-phycoerythrin (other)", "chain": "EKATKRNDEECPVQLTITRNSKQSARTGELFKIQCPVKYCVHRPNVTWCKHNGTICVPLEVSPQLYTSWEENQSVPVFVLHFKPIHLSDNGSYSCSTNFNSQVINSHSVTIHVTERTQNSSEHPLIISDIPDATNASGGGLNDIFEAQKIEWHE", "modifications": "biotinylated in vitro with BirA ligase on the C-terminal BirA sequence; bound to streptavidin-phycoerythrin", "notes": "also called B6-BTLA pET28 product"}, "B6": {"name": "BALB/c BTLA tetramer-phycoerythrin (other)", "chain": "DEECEVQLNIKRNSKHSAWTGELFKIECPVKYCVHRPNVTWCKHNGTIWVPLEVGPQLYTSWEENRSVPVFVLHFKPIHLSDNGSYSCSTWFWSQVINSHSVTIHVR", "modifications": "biotinylated in vitro with BirA ligase; bound to streptavidin-phycoerythrin", "notes": "also called BALB-BTLA pET28 product; not shown: biotinylation tag of the MLL1-pET28 vector"}, "B7": {"name": "Myc-tagged full length human BTLA, tyrosine-phosphorylated (pervanadate) (receptor)", "chain": "KESCDVQLYIKRQSEHSILAGDPFELECPVKYCANRPHVTWCKLNGTTCVKLEDRQTSWKEEKNISFFILHFEPMLPNDNGSYRCSANFQSNLIESHSTTLYVTDVKGASERPSKDEVASRPWLLYSLLPLGGLPLLITTWFCLFCCLRRHQGKQNELSDTAGREINLVDAHLKSEQTEASTRQNSQVLLSEAGIYDNDPDLCFRMQEGSEVCSNPCLEENKPGIVYASLNHSVIGLNSRLARNVKEAPTEYASICVRS", "modifications": "tyrosine-phosphorylated after pervanadate treatment (Y226, Y257, Y282 are the tyrosines studied)", "notes": "Expressed in Jurkat T cells; also called myc-hBTLA; Myc3-hBTLA; not shown: triple Myc tag inserted downstream of the signal peptide"}},
  "key": {"[1]": {"biological_target": "T1, human HVEM expressed on transduced BJAB cells (full length) (human, UniProt Q92956 39-283)", "T1 construct": "also called hHVEM; hHVEM-IRES-GFP", "T1 sequence": "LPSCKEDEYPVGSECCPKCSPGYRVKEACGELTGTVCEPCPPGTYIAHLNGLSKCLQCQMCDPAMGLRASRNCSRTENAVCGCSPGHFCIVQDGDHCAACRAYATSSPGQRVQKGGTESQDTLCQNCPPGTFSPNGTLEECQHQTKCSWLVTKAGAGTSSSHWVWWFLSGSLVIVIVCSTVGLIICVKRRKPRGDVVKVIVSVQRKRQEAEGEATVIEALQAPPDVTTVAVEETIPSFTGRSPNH", "assay": "flow cytometry on transduced BJAB cells", "from_the_text": "(§1) FIG. 36 HVEM is a ligand for BTLA. (A) NIH 3T3 cells and BJAB cells were transduced with splenocyte cDNA libraries and were directly stained with anti-Thy1.1-FITC and the C57BL/6 BTLA tetramer-phycoerythrin (Before sorting). These cells were sorted for the highest 0.5% population of BTLA tetramer staining with BTLA-phycoerythrin tetramer and Thy1.1-FITC and were subjected to an additional three rounds of similar sequential purification. After the fourth round of sorting, cell populations were expanded and cells were stained (After sorting). Numbers in each quadrant indicate the percentage of live cells in the indicated gate. (B) BJAB cells were transduced with the retroviruses mHVEM-IRES-GFP (mHVEM; mouse), hHVEM-IRES-GFP (hHVEM; human), 4-1 BB-IRES-GFP (4-1 BB; mouse) and LTβR-1RES-GFP (LTβR; mouse) and were stained with C57BL/6 BTLA tetramer-phycoerythrin or BALB/c BTLA tetramer-phycoerythrin. Numbers in dot plots indicate the percentage of BTLA tetramer staining in the GFP-positive population. (C, D) HVEM activates BTLA phosphorylation and SHP-2 association. EL-4 cells (EL4), BJAB cells expressing GFP (BJAB-GFP) or BJAB cells expressing mouse HVEM (BJAB-mHVEM) were added (+) or not added (−) for 4 min at 37° C. at a density of 25×10⁶ cells/ml. Cells were left untreated (−) or were treated (+) with pervanadate (VO₄) for 4 min. Total cell lysates were prepared and were immunoprecipitated with 6A6 (anti-mouse BTLA), and immunoblots were probed for SHP-2 (C) or for phosphotyrosine (D) in immunoprecipitates (IP) or in lysates without immunoprecipitation. Immunoblots using the isotype control for immunoprecipitation were negative for SHP-2 association (data not shown). Data in C and d are representative of four independent experiments. (E) BJAB cells were transduced with retrovirus mHVEM-ires-GFP or hHVEM-ires-GFP and were stained with human IgG1 isotype control (hIgG1), mB7x-Fc, mBTLA-Fc or hBTLA-Fc followed by anti-human IgG-phycoerythrin. Numbers in dot plots show the percentage of fusion protein staining in the GFP-positive population."}, "[2]": {"biological_target": "T2, PD-L1 expressed on NIH 3T3 cells (UniProt Q9EP73 19-265, limits assumed)", "T2 construct": "domain: extracellular domains; also called PD-L1-GFP", "T2 sequence (Q9EP73 19-265 limits assumed)": "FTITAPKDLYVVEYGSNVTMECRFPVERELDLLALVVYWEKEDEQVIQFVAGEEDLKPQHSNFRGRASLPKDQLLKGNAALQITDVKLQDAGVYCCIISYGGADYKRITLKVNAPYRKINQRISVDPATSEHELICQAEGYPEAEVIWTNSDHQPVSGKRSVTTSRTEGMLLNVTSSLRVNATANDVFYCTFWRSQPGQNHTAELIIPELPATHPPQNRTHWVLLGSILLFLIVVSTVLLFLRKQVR", "assay": "flow cytometry on NIH 3T3 transfectants", "from_the_text": "(§2) To test for direct interactions between BTLA and B7x, we made NI H 3T3 cell lines stably expressing the extracellular domains of B7x, BTLA, and programmed death 1 (PD-1) and its ligand (PD-L1), and stained the cells with PD-1 and BTLA tetramers and with PD-L1 and B7x Fc fusion proteins."}, "[3]": {"biological_target": "T3, B7x extracellular domain expressed on NIH 3T3 cells (mouse, UniProt Q7TSP5 25-257)", "T3 construct": "also called B7x-B7h-GFP; not shown: B7h transmembrane and cytoplasmic domains fused to GFP", "T3 sequence": "B4 chain", "assay": "flow cytometry on NIH 3T3 transfectants", "from_the_text": "as §2"}, "[4]": {"biological_target": "T4, C57BL/6 allele of mouse BTLA expressed on transfected cells as a GFP fusion protein (mouse, UniProt Q7TSA3 30-306)", "T4 construct": "also called BJAB.B6 BTLA-GFP; C57BL/6 BTLA; not shown: GFP without its start codon", "T4 sequence": "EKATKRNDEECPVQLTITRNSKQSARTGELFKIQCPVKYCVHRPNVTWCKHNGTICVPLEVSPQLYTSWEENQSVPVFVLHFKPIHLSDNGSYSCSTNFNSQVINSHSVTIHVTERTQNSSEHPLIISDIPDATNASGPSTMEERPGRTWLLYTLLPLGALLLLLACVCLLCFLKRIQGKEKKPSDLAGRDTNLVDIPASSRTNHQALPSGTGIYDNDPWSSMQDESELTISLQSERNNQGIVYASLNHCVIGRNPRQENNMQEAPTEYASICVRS", "assay": "flow cytometry on NIH 3T3 transfectants", "from_the_text": "as §2"}, "[5]": {"biological_target": "T5, mouse 4-1BB expressed on transduced BJAB cells (mouse, UniProt P20334 24-256)", "T5 construct": "whole, on cells; also called m4-1BB; 4-1 BB-IRES-GFP", "T5 sequence (looked up)": "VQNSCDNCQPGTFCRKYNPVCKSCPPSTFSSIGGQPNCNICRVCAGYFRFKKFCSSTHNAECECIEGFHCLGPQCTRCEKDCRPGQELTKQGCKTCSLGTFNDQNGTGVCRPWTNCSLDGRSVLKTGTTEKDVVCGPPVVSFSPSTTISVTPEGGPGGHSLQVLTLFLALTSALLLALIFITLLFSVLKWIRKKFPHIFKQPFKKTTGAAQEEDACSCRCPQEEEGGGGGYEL", "assay": "flow cytometry on transduced BJAB cells", "from_the_text": "as §1"}, "[6]": {"biological_target": "T6, mouse LTβR expressed on transduced BJAB cells (mouse, UniProt P50284 31-415)", "T6 construct": "whole, on cells; also called LTI3R; mLT R", "T6 sequence (P50284 31-415)": "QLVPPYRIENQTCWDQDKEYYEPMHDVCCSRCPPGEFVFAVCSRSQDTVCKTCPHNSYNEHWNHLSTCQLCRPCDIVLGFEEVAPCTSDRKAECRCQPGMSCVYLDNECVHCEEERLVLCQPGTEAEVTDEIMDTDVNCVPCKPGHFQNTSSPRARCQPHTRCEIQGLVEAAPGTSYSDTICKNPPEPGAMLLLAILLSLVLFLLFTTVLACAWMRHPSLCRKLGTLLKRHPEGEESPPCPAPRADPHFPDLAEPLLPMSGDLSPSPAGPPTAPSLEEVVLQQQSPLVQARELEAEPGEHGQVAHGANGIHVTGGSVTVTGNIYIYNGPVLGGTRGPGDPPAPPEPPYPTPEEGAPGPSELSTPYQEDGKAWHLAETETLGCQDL", "assay": "flow cytometry on transduced BJAB cells", "from_the_text": "as §1"}, "Grb2": {"biological_target": "Grb2 (UniProt P62993 1-217)", "sequence (P62993 whole entry)": "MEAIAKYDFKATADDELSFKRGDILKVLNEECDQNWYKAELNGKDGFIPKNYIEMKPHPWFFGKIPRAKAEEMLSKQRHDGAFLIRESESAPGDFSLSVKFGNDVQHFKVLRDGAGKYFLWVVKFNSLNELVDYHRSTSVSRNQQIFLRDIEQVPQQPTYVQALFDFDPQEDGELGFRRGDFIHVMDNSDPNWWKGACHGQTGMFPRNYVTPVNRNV", "assay": "co-immunoprecipitation"}, "SHIP": {"biological_target": "T7, SHIP (UniProt Q92835 1-1189, limits assumed)", "T7 sequence (looked up)": "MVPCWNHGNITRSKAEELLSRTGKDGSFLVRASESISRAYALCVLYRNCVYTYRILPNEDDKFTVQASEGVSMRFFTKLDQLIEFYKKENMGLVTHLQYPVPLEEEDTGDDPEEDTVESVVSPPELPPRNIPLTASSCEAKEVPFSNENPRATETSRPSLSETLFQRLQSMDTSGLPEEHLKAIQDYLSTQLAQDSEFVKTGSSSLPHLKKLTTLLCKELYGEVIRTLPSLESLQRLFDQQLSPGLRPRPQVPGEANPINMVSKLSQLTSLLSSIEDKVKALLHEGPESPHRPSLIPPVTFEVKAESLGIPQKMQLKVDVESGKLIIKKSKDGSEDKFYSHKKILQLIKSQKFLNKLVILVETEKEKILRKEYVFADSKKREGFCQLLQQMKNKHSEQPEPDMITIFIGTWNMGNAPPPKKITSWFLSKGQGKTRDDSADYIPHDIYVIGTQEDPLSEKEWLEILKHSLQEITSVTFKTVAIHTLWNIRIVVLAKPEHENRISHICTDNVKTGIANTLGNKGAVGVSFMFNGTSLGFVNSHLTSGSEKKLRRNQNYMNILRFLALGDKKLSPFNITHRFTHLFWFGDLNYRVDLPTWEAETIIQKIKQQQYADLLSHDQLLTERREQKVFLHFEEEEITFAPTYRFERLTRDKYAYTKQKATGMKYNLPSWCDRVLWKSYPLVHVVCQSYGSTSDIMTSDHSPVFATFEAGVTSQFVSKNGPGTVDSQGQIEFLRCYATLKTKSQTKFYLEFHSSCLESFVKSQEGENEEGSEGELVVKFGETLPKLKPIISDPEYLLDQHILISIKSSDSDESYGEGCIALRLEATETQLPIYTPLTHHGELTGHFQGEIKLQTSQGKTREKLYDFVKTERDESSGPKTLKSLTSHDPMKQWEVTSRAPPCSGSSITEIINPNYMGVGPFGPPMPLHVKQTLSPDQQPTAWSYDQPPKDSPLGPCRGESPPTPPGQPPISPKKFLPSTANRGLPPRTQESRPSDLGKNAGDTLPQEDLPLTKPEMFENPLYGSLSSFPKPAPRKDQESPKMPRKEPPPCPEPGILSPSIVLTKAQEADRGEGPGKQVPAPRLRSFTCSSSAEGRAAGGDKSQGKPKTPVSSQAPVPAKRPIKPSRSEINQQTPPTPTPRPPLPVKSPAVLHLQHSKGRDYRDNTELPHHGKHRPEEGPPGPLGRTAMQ", "assay": "co-immunoprecipitation"}, "SHP-1": {"biological_target": "SHP-1 (UniProt P29350 1-595)", "sequence (P29350 whole entry)": "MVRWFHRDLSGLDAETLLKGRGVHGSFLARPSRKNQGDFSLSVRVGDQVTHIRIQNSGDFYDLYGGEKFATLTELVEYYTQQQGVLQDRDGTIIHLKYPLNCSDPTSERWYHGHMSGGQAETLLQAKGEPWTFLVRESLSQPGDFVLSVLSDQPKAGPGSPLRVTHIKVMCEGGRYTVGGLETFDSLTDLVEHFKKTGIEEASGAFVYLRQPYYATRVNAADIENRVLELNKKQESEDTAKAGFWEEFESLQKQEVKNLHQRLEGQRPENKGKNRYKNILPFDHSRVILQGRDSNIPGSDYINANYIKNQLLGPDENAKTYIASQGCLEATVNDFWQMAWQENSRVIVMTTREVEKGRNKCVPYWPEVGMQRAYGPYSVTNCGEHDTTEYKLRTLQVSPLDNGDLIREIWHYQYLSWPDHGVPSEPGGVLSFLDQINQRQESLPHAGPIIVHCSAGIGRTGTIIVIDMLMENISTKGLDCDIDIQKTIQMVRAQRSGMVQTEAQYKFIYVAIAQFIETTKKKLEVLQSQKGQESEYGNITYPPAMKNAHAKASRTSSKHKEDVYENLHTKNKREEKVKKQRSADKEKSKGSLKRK", "assay": "co-immunoprecipitation"}},
  "data": [
    {"binder": "B1", "values": [
      {"measurement": "binding result", "setting": "[1]", "value": "binds"}
    ]},
    {"binder": "B2", "values": [
      {"measurement": "binding result", "setting": "[1]", "value": "no binding (tested: 200 ng of purified Fc-fusion protein)"}
    ]},
    {"binder": "B3", "values": [
      {"measurement": "binding result", "setting": "[2]", "value": "no binding"},
      {"measurement": "binding result", "setting": "[3]", "value": "no binding"},
      {"measurement": "binding result", "setting": "[1]", "value": "no binding"}
    ]},
    {"binder": "B4", "values": [
      {"measurement": "binding result", "setting": "[4]", "value": "no binding"},
      {"measurement": "binding result", "setting": "[1]", "value": "no binding (tested: 200 ng of purified Fc-fusion protein)"}
    ]},
    {"binder": "B5", "values": [
      {"measurement": "binding result", "setting": "[1]", "value": "no binding"},
      {"measurement": "binding result", "setting": "[5]", "value": "no binding"},
      {"measurement": "binding result", "setting": "[6]", "value": "no binding"}
    ]},
    {"binder": "B6", "values": [
      {"measurement": "binding result", "setting": "[1]", "value": "no binding"},
      {"measurement": "binding result", "setting": "[5]", "value": "no binding"},
      {"measurement": "binding result", "setting": "[6]", "value": "no binding"}
    ]},
    {"binder": "B7", "values": [
      {"measurement": "binding result", "setting": "Grb2", "value": "no binding"},
      {"measurement": "binding result", "setting": "SHIP", "value": "no binding"},
      {"measurement": "binding result", "setting": "SHP-1", "value": "no binding"}
    ]}
  ]
}
